Measurements published in paper PMC12692541.

System: HalTzlAAA homotrinucleopeptide (synthetic (designed))
Assay: fluorescence anisotropy
Conditions: none

Sequence | Kd [µM]
CCAGAGAGCCUGGGAGCUCUCUGG [ΔTAR] | 161
CCAGAUUUGAGCCUGGGAGCUCUCUGG [TAR UUU] | 30.1
